For one substance, stoichiometry N results are on record in publication PMC3635987.

For this assay, the target named is PrgH_(11–120), cytoplasmic domain of the inner-membrane ring protein PrgH (Salmonella enterica serovar Typhimurium) (UniProt P41783). The experiment in a line: crystal structure; PrgH_(11–120) at 5–10 mg/ml, 20°C, 15–20% PEG 6000, 0.02 M CaCl2, 0.1 M HEPES pH 6.5; packing in the asymmetric unit.

A word on the stoichiometry N: it is a count of units in the complex or per binding partner.

Regarding “PrgH_(11–120), cytoplasmic domain of the inner-membrane ring protein PrgH (from UniProt P41783 11-120) (domain or fragment)”, the stoichiometry N came out at 6.
